Experimental data reported in US20100331233A1, “CRYSTAL OF XPA AND ERCC1 COMPLEX AND USES THEREOF” (priority 2007, published 2010).
“Also recorded” adds a separate entry of the source. Where two headings read alike, the source gives them in different places.

B3: ERCC192-214 (central domain of ERCC1, N-terminal His6 tag) (other)
chain: MGSSHHHHHHSQDPLKPGAKSNSIIVSPRQRGNPVLKFVRNVPWEFGDVIPDYVLGQSTCALFLSLRYHNLHPDYIHGRLQSLGKNFALRVLLVQVDVKDPQQALKELAKMCILADCTLILAWSPEEAGRYLETYKA
notes: 15N-labeled (and perdeuterated) in some NMR experiments

Legend:
[1] = tested on: NER activity in XPF-deficient cell extracts; assay: In vitro NER assay in XPF-deficient cell extract supplemented with wild-type or mutant ERCC1-XPF; format: biochemical; settings: cisplatin crosslink plasmid
Description: Mutations in the XPA binding pocket of ERCC1 abolish NER in vitro. […] Mutant ERCC1 proteins were generated containing N110A or Y145A single mutations or a N110A/Y145A double mutation, and their activities compared to that of the wild-type ERCC1 protein.

[2] = tested on: UV20 Chinese Hamster Ovary cells; assay: Restoration of UV resistance in ERCC1-deficient UV20 cells by lentivirally expressed ERCC1; format: cell-based
Protocol: Mutations in the XPA binding pocket of ERCC1 abolish NER in living cells. The ERCC1-N110A/Y145A double mutant protein was tested for its ability to interact with XPA and support NER activity in living cells. The double mutant and wild-type ERCC1 proteins were introduced into ERCC1-deficient UV20 Chinese Hamster Ovary cells using a lentiviral expression system. Proper expression of the ERCC1 proteins was detected using immunofluorescent detection using an antibody against the HA tag present on the lentivirally expressed ERCC1 protein. Two main parameters were compared for the wild-type and mutant proteins. Global NER activity was assessed by measuring the ability of the wild-type and double mutant ERCC1 proteins to restore UV resistance in UV-20 cells.

[3] = tested on: UV20 cells; assay: Recruitment of ERCC1 and XPA to local UV damage foci (irradiation through polycarbonate filters, immunofluorescence); format: cell-based, Chinese Hamster; settings: UV-irradiated UV20 cells, 5 μM pore filters
Protocol: The interaction of ERCC1 and XPA was investigated in living cells as follows (Volker et al., 2001, Gillet and Schärer, 2006): Cells were irradiated with UV irradiation through polycarbonate filters that are only translucent to UV light through their […]. This allows for the formation of spatially defined subnuclear region UV damage that can be detected as defined foci in fixed cells by antibodies against UV lesions in DNA as well as with antibodies against NER proteins recruited to these sites during the repair process.

[4] = biological target: XPA (endogenous, in UV20 Chinese Hamster Ovary cells); assay: cell-based or functional assay
[5] = tested on: NER activity in HeLa cell extracts; assay: In vitro NER assay: excision of a 1,3-intrastrand cisplatin adduct from plasmid in HeLa cell extract with XPA peptide; format: biochemical; settings: HeLa cell free extract, plasmid with 1,3-cisplatin intrastrand crosslink, peptide 46 nM to 92 μM
[6] = biological target: T1, ERCC1-XPF (Homo sapiens, UniProt P07992); assay: Nuclease assay: incision of stem-loop DNA substrate by purified ERCC1-XPF; format: biochemical; settings: 92 μM peptide, 0.4 mM MnCl2
T1 sequence (P07992 1-297): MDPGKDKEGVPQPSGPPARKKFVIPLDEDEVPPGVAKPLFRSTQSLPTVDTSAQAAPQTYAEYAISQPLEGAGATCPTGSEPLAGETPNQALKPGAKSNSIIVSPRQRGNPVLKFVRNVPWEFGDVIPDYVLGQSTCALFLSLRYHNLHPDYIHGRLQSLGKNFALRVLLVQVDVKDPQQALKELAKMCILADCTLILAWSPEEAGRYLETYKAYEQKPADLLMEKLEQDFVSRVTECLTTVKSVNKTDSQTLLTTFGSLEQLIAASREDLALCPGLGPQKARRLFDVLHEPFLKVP
T1 sequence (Q92889 1-916 partner): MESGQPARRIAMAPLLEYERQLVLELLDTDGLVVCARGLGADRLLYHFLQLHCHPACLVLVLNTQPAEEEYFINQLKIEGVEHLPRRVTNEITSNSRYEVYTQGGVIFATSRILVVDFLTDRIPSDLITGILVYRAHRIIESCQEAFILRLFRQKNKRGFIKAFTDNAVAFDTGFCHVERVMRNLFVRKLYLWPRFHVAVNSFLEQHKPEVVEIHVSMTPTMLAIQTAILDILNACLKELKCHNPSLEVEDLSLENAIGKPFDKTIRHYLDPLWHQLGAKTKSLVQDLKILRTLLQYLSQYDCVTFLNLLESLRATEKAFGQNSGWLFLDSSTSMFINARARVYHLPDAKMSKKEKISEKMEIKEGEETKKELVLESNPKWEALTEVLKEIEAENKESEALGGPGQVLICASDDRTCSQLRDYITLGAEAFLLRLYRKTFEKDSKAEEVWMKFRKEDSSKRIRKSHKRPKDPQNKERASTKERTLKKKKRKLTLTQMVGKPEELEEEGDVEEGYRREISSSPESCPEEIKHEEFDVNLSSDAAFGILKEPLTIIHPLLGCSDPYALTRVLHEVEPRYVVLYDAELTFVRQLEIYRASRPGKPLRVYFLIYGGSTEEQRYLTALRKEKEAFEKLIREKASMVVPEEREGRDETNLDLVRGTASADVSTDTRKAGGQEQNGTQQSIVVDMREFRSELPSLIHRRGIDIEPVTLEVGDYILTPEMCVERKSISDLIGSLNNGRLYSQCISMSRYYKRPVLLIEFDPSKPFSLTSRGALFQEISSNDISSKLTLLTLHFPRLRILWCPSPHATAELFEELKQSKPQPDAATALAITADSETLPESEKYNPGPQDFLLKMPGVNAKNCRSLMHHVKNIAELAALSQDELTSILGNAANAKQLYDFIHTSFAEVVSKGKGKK
Protocol: Nuclease assay. A substrate consisting of a 12 base pair stem with a 22 nucleotide loop (5′-[…](T)22[…]; SEQ ID NO:7) was 5′ end labeled using a T4 polynucleotide kinase and [γ-^32P]-ATP. […] The final reaction volume was 15 μl.

[7] = biological target: T2, ERCC192-214 (Homo sapiens, UniProt P07992); assay: 15N HSQC NMR chemical shift perturbation of 15N-labeled ERCC1; format: binding; settings: 15N HSQC
T2 construct: an ERCC1 central domain fragment consisting of amino acids 92-214 preceded by an N-terminal hexahistidine tag; made in house; host or cells: E. coli BL21(DE3), M9 minimal media with 15N-labeled NH4Cl
T2 sequence (P07992 92-214): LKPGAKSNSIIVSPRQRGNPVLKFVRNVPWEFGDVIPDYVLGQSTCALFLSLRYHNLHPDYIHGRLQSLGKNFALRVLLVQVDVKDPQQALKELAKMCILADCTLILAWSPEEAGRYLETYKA
Protocol: FIG. 3 illustrates the binding of XPA67-80 in a shallow groove of ERCC1. (A) A comparison of the two dimensional HSQC spectra for ^15N-labeled ERCC192-214 in the presence and absence of an unlabeled XPA67-80 peptide. The ^15N HSQC spectra reveal significant chemical shift changes for some ERCC1 residues (labeled) in the absence or presence of unlabeled XPA67-80. (B) Combined average chemical shift perturbations are calculated as Δχave=[((Δχ1H)^2+(Δχ15N/5)^2)/2)]^1/2 for each backbone amide of ERCC1 and shown as a histogram.
NMR experiments and determination of the structure of XPA-ERCC1 complex. All NMR data were acquired in the NMR Buffer described above. […] Backbone assignments of the free ERCC192-214 and ERCC1-XPA67-80 complex were performed using a standard set of triple-resonance experiments: HNCA/HN(CO)CA, HN(CA)CB/HN(COCA)CB and HNCO/HN(CA)CO.
Identification of the ERCC1 binding site in complex with XPA. The binding site for XPA on the surface of ERCC1 (FIG. 2B) was identified using two dimensional HSQC experiments. […] The ^15N HSQC spectrum of the ERCC1-XPA complex is consistent with a slow-exchange regime, implying a dissociation equilibrium constant below 1 μM for the complex. The XPA binding site on the ERCC1 central domain was identified using the backbone assignments for […] alone and in complex with XPA (see below). […]

[8] = biological target: B3; assay: 15N HSQC of the ERCC1-XPA complex, slow-exchange regime
[9] = biological target: T3, ERCC196-214 (central domain of ERCC1, N-terminal His6 tag) (Homo sapiens (Human), UniProt P07992 96-214); assay: competition titration, fluorescence anisotropy; reference is DNA binding to the ERCC1 central domain (1.5 µM)
T3 construct: not shown: N-terminal His6 tag
T3 sequence: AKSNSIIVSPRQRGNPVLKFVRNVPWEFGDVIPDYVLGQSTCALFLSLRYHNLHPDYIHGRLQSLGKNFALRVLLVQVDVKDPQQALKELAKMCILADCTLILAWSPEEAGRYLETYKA

[10] = biological target: B3; assay: competition with 6FAM-labeled single-stranded 40mer DNA for ERCC1, fluorescence polarization, best fit to Eq. 9 (legend of FIG. 7)
[11] = biological target: T3, ERCC196-214 (central domain of ERCC1, …); assay: competition with 6FAM-labeled single-stranded 40mer DNA for ERCC1, fluorescence anisotropy, fit to a competitive binding model (Eq. 9)
[12] = biological target: B3; assay: 15N HSQC of 15N-labeled ERCC1 with added mutant peptide (data not shown)
[13] = biological target: T4, XPA1-273 (Homo sapiens (Human), UniProt P23025 1-273); assay: gel filtration (S100) of the complex; ERCC1 central domain construct (92-214 or 96-214) not specified
T4 construct: Cloned into pET19bpps; His10 tag cleaved with Prescission protease; also called full length XPA protein

[14] = biological target: T5, XPA59-273 (Homo sapiens (Human), UniProt P23025 59-273); assay: as above
T5 construct: Cloned into pET19bpps; His10 tag cleaved with Prescission protease

[15] = biological target: B3; assay: sedimentation equilibrium analytical ultracentrifugation

T4 sequence (P23025 whole entry, the tested form may be a part): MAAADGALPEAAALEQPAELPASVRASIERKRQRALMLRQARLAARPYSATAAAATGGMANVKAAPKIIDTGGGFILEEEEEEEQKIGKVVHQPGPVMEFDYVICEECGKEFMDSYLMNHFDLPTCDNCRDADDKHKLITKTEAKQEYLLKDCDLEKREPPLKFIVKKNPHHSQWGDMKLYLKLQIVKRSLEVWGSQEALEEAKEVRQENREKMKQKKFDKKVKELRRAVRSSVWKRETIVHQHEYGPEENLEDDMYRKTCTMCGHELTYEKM

wild-type ERCC1: wild-type ERCC1 protein, expressed as heterodimer with XPF in insect cells or lentivirally in UV20 cells
NER activity restored by ERCC1 (heterodimer with XPF) [1]: restored NER activity
restoration of UV resistance ([2]; doses of 1, 2, 4 and 10 J/m^2): fully restored UV resistance
recruitment of ERCC1 to sites of nuclear UV damage [3]: colocalized at sites containing 6-4 photoproducts

ERCC1-N110A/Y145A double mutant protein with HA tag, lentivirally expressed in UV20 Chinese Hamster Ovary cells (from UniProt P07992 1-297)
UV resistance of UV20 cells [4]: < 50%

XPA67-80^F75A: mutant XPA67-80 peptide with alanine substitution at Phe75 (KIIDTGGGAILEEE)
effect on NER excision of the lesion-containing oligonucleotide [5]: did not affect NER activity; also recorded: has no effect
effect on intrinsic nuclease activity of ERCC1-XPF [6]: do not affect
binding to 15N-labeled ERCC1 by chemical shift perturbation [7]: does not bind to ERCC1

B1: XPA67-80 peptide (peptide)
peptide: KIIDTGGGFILEEE
notes: Synthetic peptide made by solid phase methods, residues 67-80 of XPA; also called XPA peptide; synthetic XPA fragment
Kd [8]: < 1000 nM
fold higher affinity than single stranded DNA [9]: ~3 fold
Kd [10]: 300 nM
Kd [11]: 540 nM

B2: XPA67-80^F75A mutant peptide (peptide)
peptide: KIIDTGGGAILEEE
notes: Synthetic peptide, alanine substitution at Phe75 of XPA67-80
binding result [12]: no binding

B3
binding result [13]: binds
binding result [14]: binds

B4: ERCC1-N110A/Y145A: mutant ERCC1 protein with N110A/Y145A double mutation (protein)
chain: MDPGKDKEGVPQPSGPPARKKFVIPLDEDEVPPGVAKPLFRSTQSLPTVDTSAQAAPQTYAEYAISQPLEGAGATCPTGSEPLAGETPNQALKPGAKSNSIIVSPRQRGAPVLKFVRNVPWEFGDVIPDYVLGQSTCALFLSLRAHNLHPDYIHGRLQSLGKNFALRVLLVQVDVKDPQQALKELAKMCILADCTLILAWSPEEAGRYLETYKAYEQKPADLLMEKLEQDFVSRVTECLTTVKSVNKTDSQTLLTTFGSLEQLIAASREDLALCPGLGPQKARRLFDVLHEPFLKVP
modifications: left off: small tags and cut ends
notes: mutant ERCC1 protein with N110A/Y145A double mutation
NER activity restored by ERCC1 (heterodimer with XPF) [1]: only marginal NER activity
restoration of UV resistance [2]: less than 50%
recruitment of ERCC1 to sites of nuclear UV damage [3]: not recruited to sites of active NER

B5: XPA59-93 (peptide)
peptide: MANVKAAPKIIDTGGGFILEEEEEEEQKIGKVVHQ
notes: Expressed in E. coli from pET19bpps; The N-terminal (His)10 tag was cleaved with Prescission protease; 15N-labeled in some NMR experiments; also called XPA59-93 peptide; XPA59-93 fragment
binding result [15]: binds
